From patent US10723806B2, “Method of introducing nucleic acid into plant cells” (RIKEN, priority 2012, dated 2020)
Ends that are not written are not given here.

What was measured:
[1] = Dynamic light scattering (DLS) size and PDI of carrier peptide-pDNA complexes; assay type: physicochemical; details: complex with pDNA
Procedure: Ionic complexes of carrier peptides (R9-BP100 and (KH)9-BP100) different in N/P ratio and pDNA encoding a reporter gene were prepared and characterized by use of dynamic light scattering (DLS), an atomic force microscope (AFM), a zeta potential meter and agarose gel electrophoresis. The N/P ratio herein refers to the ratio of the number of amine groups from the carrier peptide and the number of phosphate groups from pDNA.
(§1) Two types of pDNA, i.e., green fluorescence protein (GFP)-encoding P35S-GFP (S65T)-TNOS and Renilla luciferase (RLuc)-encoding P35S-RLuc-TNOS, were used as reporter genes. All pDNA molecules were amplified in a competent DH5α E. coli (Takara) and purified by an Endofree Plasmid Giga Kit (Qiagen). To prepare a carrier peptide-pDNA complex, a carrier peptide (0.5 g/L) was mixed with a pDNA solution (about 1.0 mg/mL) so as to have different N/P ratios (0.5, 1, 2, 5, 10 and 20) at 25° C. Immediately after mixing, complexes were characterized by a zeta potential meter (Zetasizer Nano-ZS, Malvern Instruments Ltd) and an atomic force microscope (Seiko Instruments).
(§2) Solutions containing complexes each were diluted with ultra-pure water (MilliQ) up to a final volume of 800 μL and subjected to measurement of zeta potential and size. The zeta potential and zeta shift of the solution samples were measured three times by a zeta potential meter and averages of data were obtained by use of Zetasizer software ver 6.20 (Malvern Instruments Ltd). Dynamic light scattering (DLS) was performed to determine hydrodynamic diameters. Subsequently, polydispersion indexes (PDI) were determined by use of a zeta nanosizer (Zetasizer software ver 6.20) using He—Ne laser (633 nm) at 25° C. and a backscattering detection angle of 173°. Observation by an AFM was performed by fixing a complex solution on cut mica and using a silicon cantilever in air at room temperature in a tapping mode at a spring constant of 1.3 N/m. A cantilever tip rotation effect was obtained by calculation and true dimensions of complexes were obtained by the method previously reported (K. Numata, Y. Kikkawa, T. Tsuge et al., Macromol Biosci 6 (1), 41, 2006; K. Numata, T. Hirota, Y. Kikkawa et al., Biomacromolecules 5 (6), 2186, 2004). For gel retardation assay, each sample (40 μL) containing 1.0 μg of pDNA was mixed with a loading buffer, analyzed on a 1% agarose gel (TAE buffer, 100 V, 30 minutes) and stained with ethidium bromide.

[2] = Zeta potential of carrier peptide-pDNA complexes; assay type: physicochemical; details: pDNA complex
Procedure: as §1, §2

[3] = test system: pDNA; assay: Gel retardation assay (agarose gel electrophoresis) of carrier peptide-pDNA complexes; assay type: physicochemical; details: pDNA complex
Procedure: as §2

[4] = test system: Nicotiana benthamiana leaf; assay: In-vivo transfection of tobacco leaf with RLuc-encoding pDNA complex, Renilla luciferase assay; details: for transfection efficiency (RLuc assay) compared to complexes having other N/P ratios: N/P ratio 0.5, tobacco leaf; for incubation time showing the highest transfection efficiency: tobacco leaf, sampled 12 to 144 hours; for RLuc expression (relative photometric unit/protein weight): peptide alone as carrier of pDNA, N/P ratio 0.5, 12 hours, benthamiana tobacco leaf
Procedure: In-vivo transfection experiment using the tobacco leaf was performed to evaluate an ability of a carrier peptide-pDNA complex to deliver a gene into plant cells through a cell wall. Complexes of pDNA encoding RLuc and GFP serving as a reporter gene with R9-BP 100 and (KH)9-BP100 were directly allowed to permeate into Nicotiana benthamiana leaf. To determine the most efficient N/P ratio of a pDNA complex in the range of 0.1 to 20, a transfection efficiency is quantitatively characterized by use of RLuc assay.
A target plant was prepared as follows. Seeds of benthamiana tobacco were germinated in a pot containing a culture medium, which is a mixture of a soil (Pro-Mix) and vermiculite in a ratio of 2:1. The benthamiana tobacco plant was grown up to three weeks in a plant incubator (Biotron NK System) under constant light irradiation for 24 hours at a temperature of 29° C.
Leaves of benthamiana tobacco were sufficiently spread and directly impregnated with a solution (about 100 μL) of a complex comprising pDNA encoding green fluorescence protein (GFP) and Renilla luciferase (RLuc) by use of a syringe without a needle. The benthamiana tobacco plants thus treated were incubated in a plant incubator separately at a temperature of 29° C. and 21° C. under constant light irradiation for 16 hours per day until 6 days. To quantitatively evaluate RLuc gene expression, Renilla luciferase assay (Promega) was performed in accordance with the protocol provided by a manufacturer (n=4).
To be described in brief, sampling of the leaf impregnated was performed periodically in the range of 12 hours to 144 hours by cutting a square (1 cm^2) around an impregnated section. The samples each were lysed by use of Renilla Luciferase Assay Lysis Buffer (Promega). The lysate was briefly centrifuged and the supernatant was mixed with Renilla Luciferase Assay Substrate and Renilla Luciferase Assay Buffer (Promega). Gene expression was evaluated by a multi-mode microplate reader (Spectra MAX M3, Molecular Devices Corporation) based on the intensity (relative photometric unit) of photoluminescence. The amount of protein in the supernatant was determined by BCA protein assay (Pierce Biotechnology) to obtain a relative photometric unit/protein weight (RLU/mg). A transformant with RLuc gene-encoding pDNA via Agrobacterium (Agrobacterium) was used as a positive control in the experiment.
The statistical difference in transfection efficiency was determined by independent t-test using bilateral distribution. It was regarded that a statistically-significant difference is present at p<0.05. The data obtained in a cell survivability experiment are shown as an average±a standard deviation (n=4).

[5] = test system: Arabidopsis thaliana L.; assay: Introduction of giant DNA (80 kbp luciferase plasmid) into Arabidopsis thaliana L.; assay type: in vivo; details: complex with 80 kbp luciferase plasmid, twelve hours after introduction
Procedure: A plasmid (80 kbp) encoding luciferase was prepared by use of Bacillus subtilis and introduced into Arabidopsis thaliana L. by use of a carrier peptide ((KH)9-BP100). Twelve hours after introduction of the complex, luciferase was extracted from the leaf and subjected to quantitative analysis.

[6] = test system: mitochondria of leaf of Arabidopsis thaliana L.; assay: Organelle selective gene introduction, Renilla luciferase expression in mitochondria of Arabidopsis thaliana L. leaf; assay type: in vivo; details: complex with pDONRcox2p: rluc/gfp
Procedure: A carrier peptide comprising a mitochondrial transit sequence (Cytochrome c oxidase subunit IV (yeast)) and a polycationic sequence was synthesized. In other words, ([…]) (SEQ ID NO: 43) was synthesized by the solid phase peptide synthesis. The mitochondrial transit sequence is represented by MLSLRQSIRFFK (SEQ ID NO: 44) and the polycationic sequence is represented by KHKHKHKHKHKHKHKHKH) (SEQ ID NO: 22). Then, a complex was prepared from the carrier peptide synthesized and a plasmid vector (pDONRcox2p: rluc/gfp) that can function in mitochondria. In the same manner as in the above Examples, the complex was introduced into a leaf of Arabidopsis thaliana L. and expression of a reporter gene (Renilla Luciferase) in the mitochondria was quantitatively evaluated. Using a promoter (cox) which specifically functions in mitochondria, whether the complex was specifically introduced into the mitochondria was determined.

[7] = N/P ratio within the range of 2 to 20

Substance	PDI ([1]; N/P ratio 0.5)	Size (average hydrodynamic diameter, DLS) ([1]; N/P ratio 0.5)	PDI ([1]; N/P ratio 1)	Size (average hydrodynamic diameter, DLS) ([1]; N/P ratio 1)	PDI ([1]; N/P ratio 2)	Size (average hydrodynamic diameter, DLS) ([1]; N/P ratio 2)	PDI ([1]; N/P ratio 5)	Size (average hydrodynamic diameter, DLS) ([1]; N/P ratio 5)	PDI ([1]; N/P ratio 10)	Size (average hydrodynamic diameter, DLS) ([1]; N/P ratio 10)	PDI ([1]; N/P ratio 20)	Size (average hydrodynamic diameter, DLS) ([1]; N/P ratio 20)	zeta potential ([2]; N/P ratio of 0.5 and 1)	zeta potential [2, 7]	transfection efficiency (RLuc assay) compared to complexes having other N/P ratios ([4]; pDNA complex)	incubation time showing the highest transfection efficiency ([4]; pDNA complex)	RLuc expression (relative photometric unit/protein weight) [4]	further results
KHKHKHKHKHKHKHKHKHKKLFKKILKYL-NH2 [(KH)9-BP100, tested as ionic complex with pDNA]	0.31	291 nm	0.30	322 nm	0.23	139 nm	0.23	106 nm	0.23	96 nm	0.24	114 nm	negative values	positive values	highest transfection efficiency	12 h	–	mobility of pDNA in agarose gel electrophoresis ([3]; N/P ratio up to 10): a small amount of pDNA migrated; luciferase activity in leaf [5]: efficient luciferase activity was confirmed
KHKHKHKHKHKHKHKHKH [(KH)9, reference compound]	–	–	–	–	–	–	–	–	–	–	–	–	–	–	–	–	340±60 RLU/mg	–
MLSLRQSIRFFKKHKHKHKHKHKHKHKHKH [SEQ ID NO: 43]	–	–	–	–	–	–	–	–	–	–	–	–	–	–	–	–	–	gene introduction efficiency to mitochondria (Rluc) among N/P=0.5, 1 and 2 [6]: a highly significant difference was shown
RRRRRRRRRKKLFKKILKYL-NH2 [R9-BP100, tested as ionic complex with pDNA]	0.34	319 nm	0.38	321 nm	0.21	151 nm	0.21	127 nm	0.23	114 nm	0.25	116 nm	negative values	positive values	highest transfection efficiency	12 h	–	mobility of pDNA in agarose gel electrophoresis ([3]; N/P ratio of 0.5 to 2): the same mobility as that of a free pDNA; mobility of pDNA in agarose gel electrophoresis ([3]; N/P ratio of 10 and 20): no mobility was observed; time-dependent transfection behavior ([4]; pDNA complex, compared to (KH)9-BP100): quick and short transfection behavior
KKLFKKILKYL [BP100, cell-penetrating peptide alone, synthesized for controls, reference compound]	–	–	–	–	–	–	–	–	–	–	–	–	–	–	–	–	120±70 RLU/mg	–
